Test results from article PMC12548415 (2025).

Experiments:
[1] = target: wild-type raccoon dog parvovirus strain RDPV/CL/2016, capsid of VP2 (raccoon dog parvovirus, strain …); assay: BLI
[2] = target: wild-type raccoon dog parvovirus strain RDPV/FLD/2010, capsid of VP2 (raccoon dog parvovirus, strain …); assay: BLI

B1: raccoon dog transferrin receptor ectodomain (recombinant RDTfR, from residue 121, C-terminal 6x His) (receptor)
chain: EEYFPETPSRLFWTDLKTMLSERLSNTDFTNTMRWLNENSYVPREAGSQKDESLALLIENRFREFQLSKSWRDEHFVKIQVKSSNAQNTVTIVGTESGLVYLVENPEGYVAYSKATTVTGRLVHVNFGTKKDFENLKSPVNGSLVIARAGKITFAEKVANAQSYNALGVLIYMDQARFPIVNAQIPFFGHAHLGTGDPYTPGFPSFNHTQFPPSQSSGLPSIPVQTIPRAVAEKLFENMEGDCPSAWEIDPSCRLETSPNKNVKLTVNNVLKEIRIFNIFGVIKGFEEPDRYVVIGAQRDAWGPGAAKSSVGTALLLELARIFSDMVLKGGFKPSRSIVFASWSAGDFGAIGATEWLEGYLSSLHLKAFTYINLDKAILGTSNFKVSASPLLYSLLEKTMKDVKHPITGQSLYRDSNWINKVEKWSLDNAAFPFLAYSGIPAVSFCFCEDTDYPYLGTTMDLYENLNQKIPQLNKMARGAAEVAGQLIIKLTYDLELNLNYEMYNDKILSFVRDMNQFRTDLKEMGLNLQWLYSARGDFFRATSRLTTDYKNAERTNRFVMREINDRIMKVEHNFLSPYVSPRDSPFRHIFWGSGSHTLPALVEHLKLRQKNNSAFNETLLRNQLALATWTIQGAANALSGDIWDIDNEL
koff [1]: 0.00441 s⁻¹
koff [2]: 0.0126 s⁻¹
